{"source": "patent US20060234208A1", "about": "“Novel mechanism for hiv-1 entry into host cells and peptides inhibiting this mechanism” (priority 2002, published 2006)", "molecules": {"B1": {"name": "rTAT: recombinant TAT (TAT86 III B) protein (protein)", "chain": "MIPVDPRLEPWKHPGSQPKTACTNCYCKKCCFHCQVCFITKALGISYGRKKRRQRRRAHQNSQTHQASLSKQPTSQPRGDPTGPKE"}, "B2": {"name": "TATBasMut: GST-fusion TAT HXB2 variant with the mutations R-49,52,53,55,56,57-A (protein, UniProt P04608 1-86, looked up, variant R49A R52A R53A R55A R56A R57A)", "Protein Tat": "B1 chain with I2E, R49A, R52A, R53A, R55A, R56A, R57A", "modifications": "GST fusion", "notes": "GST-fusion TAT HXB2 variant with the mutations R-49,52,53,55,56,57-A"}, "B3": {"name": "TATCysMut: GST-fusion TAT HXB2 variant with the mutations C-22,25,27-A (protein, UniProt P04608 1-86, looked up, variant C22A C25A C27A)", "Protein Tat": "B1 chain with I2E, C22A, C25A, C27A", "modifications": "GST fusion", "notes": "GST-fusion TAT HXB2 variant with the mutations C-22,25,27-A"}}, "key": {"recombinant TAT protein": {"target": "T1, recombinant TAT protein (Human immunodeficiency virus type 1 group M subtype B, UniProt P69697, G61N/P58A/P59H/S77P/V67A)", "T1 construct": "TAT86 (full-length); purchased The Centralized facility for AIDS Reagents, National Institute for Biological Standards and Controls (donor Immunodiagnostic)", "test": "Binding of selected phage to rTAT-coated microwells", "parameters": "species or system HIV-1", "details": "single phage clones; BSA and insertless phage FdTet as negative controls", "source_text": "For this assay, we have tested single phage clones for binding rTAT-coated microwells, using an unrelated protein, the Bovine Serum Albumin (BSA), as a negative control. The result is shown in the graph, where ‘Transducing Units’ is a parameter indicating the number of bound phage. Binding of the phage to an insertless phage, FdTet, is shown as a negative control."}, "HIV-1 Ba-L": {"system": "HIV-1 Ba-L", "test": "Infection of PBMC with HIV-1 strain Ba-L (Example VI)", "type": "cell-based", "details": "PHA-stimulated PBMCs, 2 h infection; versus 100 μM control peptide; SEQ 4 and 44: 100-50-10 μM, SEQ 127: 1 μM-100-10 nM", "method": "This example is illustrated in FIG. 12. […] 4 (CSFINT), 44 (RDKVKK) and the complete gp120 region SEQ ID NO.127 (CSFNITTEIRDKVKK), where the entry experiment is performed with two strains of HIV-1 on peripheral blood cells (PBMCs) derived from healthy donors. In particular, strain III B uses CXCR4 as a co-receptor (X4) and Ba-L uses CCR5 (R5). […] In the graphs the percent inhibition of infection due to the peptides is shown, as compared to infection in the presence of 100 μM of a control peptide. PHA-stimulated PBMCs have been incubated with the peptides and immediately infected for 2 h at 37° C. This incubation time is sufficient to evaluate virus entry, by detecting the presence of early viral transcripts into the cytoplasm of infected cells. The peptide concentrations are as follows: SEQ ID NO.4 and 44: 100-50-10 μM; SEQ ID NO. 127: 1 μM-100-10 nM. In FIG. 12A is represented the effect of the peptides on the basal infection of both viral strains, in FIG. 1 2B the effect of the peptides on the infection following incubation with rTAT7 nM. A peptide-dependent inhibition of the basal infection by both HIV-1 strains is present already in the basal infection, reflecting the presence of TAT in the viral supernatants. In particular, these peptides are more efficient in reducing the basal infection by HIV-1 Ba-L than III B, reaching an inhibition from about 40% (SEQ ID NO. 44 and 127) to 70% (SEQ ID NO. 4). After cell incubation with 7 nM rTAT, the peptides have an enhanced efficacy in inhibiting the infection, and all of them show a dose-response effect, with similar outcomes on infections by both viral strains, confirming that their activity is related to the amount of membrane-bound TAT.\nCell cultures. U937 and C8166 cells were cultured in RPMI -1640 medium supplemented with 10% heat inactivated FCS; Phoenix cells were cultured in DMEM supplemented with 10% FCS; 293T cells were cultured in Iscove's medium supplemented with 10% FCS. […]\nInfection with wild type HIV-1. […] Amplified DNA was analyzed by Southern blot hybridization with a ^32P-labeled probe, and quantified by densitometry. […]"}, "[1]": {"system": "TAT+/gp120-LV entry into C8166 cells", "test": "TAT+/gp120-LV entry into C8166 cells after co-culture with U937/TAT cells (Examples IV and V)", "type": "cell-based, HIV-1", "details": "4 h co-culture with U937/TAT cells; without protease inhibitors", "method": "(§1) Transduction with HIV-1 -derived lentivirus. Vector stocks were prepared by transient co-transfection of 293T cells with the following combinations of plasmids: pRRL.hPGK.GFP.SIN-18+pCMV.DR8.2+pMD.G (Naldini et al. (1996), supra) (VSV-G-LV) or pEnvHXB (Huang et al., J. Virol. 72 (1998), 8952-8960) (TAT+/gp120-LV); pRRL.hPGK.GFP.SIN-18+pCMV.DR8.74 +pRSV-Rev ((Dull et al. (1998), supra)+pEnvHXB (TAT/gp120 -LV). Vector concentration was determined by HIV-1 p24 Core profile ELISA following the manufacturer's instructions. The entry experiments were conducted on 10^5 cells per well of a 48-well plate in the presence of 8 μg/ml polybrene. The number of GFP-positive cells was analysed by FACS."}, "[2]": {"target": "recombinant TAT86 III B (rTAT) (HIV-1 strain III B) (UniProt P04608)"}, "[3]": {"target": "TAT present in the viral supernatant of HIV-1 Ba-L (HIV-1 strain Ba-L)", "test": "cell-based or functional assay"}, "[4]": {"system": "TAT+/gp120-LV entry into C8166 cells", "test": "Effect of rTAT pre-incubation on TAT+/gp120-LV entry into C8166 cells", "type": "cell-based, HIV-1", "details": "C8166 cells pre-incubated with rTAT for 15 min", "method": "This effect is reverted if the cells are pre-treated with Heparanase Ill. […] Again, this effect is reverted by pre-treating the cells with Heparanase IlI (FIG. 3B). To investigate the specificity of this effect, we have used lentiviral vectors pseudotyped with a different envelope, i.e. Vescicular Stomatitis Virus-G (VSV-G-LV), to transduce C8166 cells after co-culture with U937/TAT cells for different incubation times, or with the different U937/TAT clones for 2 h. […] Therefore, the increase in cell entry is strictly dependent not only on surface-bound TAT, but also on the presence of gp120. […]\nas §1"}, "[5]": {"system": "TAT/gp120-LV entry into C8166 cells", "test": "Effect of GST-TAT variants on TAT-/gp120-LV entry into C8166 cells", "type": "cell-based, HIV-1", "details": "C8166 cells incubated with 7 μM GST-TAT variant for 15 min; compared to wild-type TAT86", "method": "as §1"}, "gp120": {"target": "gp120 (Human immunodeficiency virus type 1 group M subtype B, UniProt P03375)", "details": "GST-fusion TAT HXB2 variants", "source_text": "The following TATHXB2 variants were produced as GST-fusion proteins as described (Mitola, S. et al. Identification of specific molecular structures of human immunodeficiency virus type 1 TAT relevant for its biological effects on vascular endothelial cells. J Virol 74, 344-53 (2000): TAT86 (full-length), TAT72 (product of TAT first exon), TATBasMut (with the mutations R-49,52,53,55,56,57-A), TATCysMut (with the mutations C-22,25,27-A."}}, "note": "Positions count from the first letter of the chain named.", "data": [{"molecule": "CPDRKKKVVMVC [SEQ ID NO.3, phage insert selected from CX10C Phage Display library, tested as phage]", "values": [{"measurement": "phage binding to rTAT-coated microwells", "setting": "recombinant TAT protein", "result": "specifically bind recombinant TAT protein"}]}, {"molecule": "CSFNIT [SEQ ID NO. 4]", "values": [{"measurement": "percent inhibition of basal infection", "setting": "HIV-1 Ba-L", "result": "~70", "unit": "%"}, {"measurement": "blocking of virus entry at a concentration lower than 100 μM", "setting": "[1]", "result": "inefficient"}]}, {"molecule": "CSFNITTEIRDKVKK [SEQ ID NO. 127, Synthetic peptide corresponding to the selected region of gp120]", "values": [{"measurement": "percent inhibition of basal infection", "setting": "HIV-1 Ba-L", "result": "about 40%"}]}, {"molecule": "CTVECYFNCTPTC [SEQ ID NO.2, phage insert selected from CX3CX3CX3C Phage Display library, tested as phage]", "values": [{"measurement": "phage binding to rTAT-coated microwells", "setting": "recombinant TAT protein", "result": "specifically bind recombinant TAT protein"}]}, {"molecule": "RDKVKK [SEQ ID NO. 44]", "values": [{"measurement": "percent inhibition of basal infection", "setting": "HIV-1 Ba-L", "result": "about 40%"}, {"measurement": "blocking of virus entry at a concentration lower than 100 μM", "setting": "[1]", "result": "inefficient"}]}, {"molecule": "recombinant gp120 III B protein", "values": [{"measurement": "Kd", "setting": "[2]", "result": 8, "unit": "nM"}]}, {"molecule": "soluble peptide SEQ ID NO. 4 (CSFNIT)", "values": [{"measurement": "percent inhibition of basal infection of PBMCs by HIV-1 Ba-L", "setting": "[3]", "result": 70, "unit": "%"}]}, {"molecule": "soluble peptide SEQ ID NO. 44 (RDKVKK)", "values": [{"measurement": "percent inhibition of basal infection of PBMCs by HIV-1 Ba-L", "setting": "[3]", "result": 40, "unit": "%"}]}, {"molecule": "B1", "values": [{"measurement": "increase of TAT+/gp120-LV entry", "setting": "[4]", "result": "dose-response effect in increasing TAT+/gp120-LV entry"}]}, {"molecule": "B2", "values": [{"measurement": "enhancement of TAT/gp120-LV entry into the cells", "setting": "[5]", "result": "ineffective in enhancing virus entry"}, {"measurement": "binding to rgp120-coated microwells", "setting": "gp120", "result": "retaining the ability to bind gp120"}]}, {"molecule": "B3", "values": [{"measurement": "enhancement of TAT/gp120-LV entry into the cells", "setting": "[5]", "result": "could enhance vector entry"}]}]}
